One block for each binder: values may come before it. Where no end group is shown, it is not given here. Side-chain parts run from the residue outwards. maleimide = maleimide group (reactive functional group for coupling a ligand); EO 2 kDa = ethylene oxide linker of molecular weight 2000
Tests used:
[1] = molecular target: T1, HER2 (epidermal growth factor receptor 2) on N87 cells (UniProt P04626 23-1255, limits assumed); experiment: saturation binding to N87 cells, Scatchard plot, apparent Kd
T1 construct: whole, on cells; N87 cells are used as HER2-positive cells; also called HER2-positive cells (N87); HER2-expressing cells
Method: (§1) Each particle was evaluated for its binding capability to HER2-expressing cells. On the day before evaluation, HER2-positive cells (N87 cells) were seeded over a 24-well plate (5×10⁵ cells/well). Next day, after medium removal, 200 μL of a growth medium was placed therein, and the particle sample was then added to each well. The plate was left standing in a CO₂ incubator at 37° C. for 4 hours. Then, the medium containing the particle was removed. The wells were fully washed twice with 1 mL of PBS. After removal of PBS, 1% Triton-X100/PBS solution was added at a concentration of 150 μL/well for cell lysis. The cells were incubated at room temperature for 2 hours or longer. Subsequently, concentrated hydrochloric acid (12 N) was added at a concentration of 150 μL/well, and the cells were incubated at room temperature for 2 hours or longer. The amount of iron in this acid lysate of the sample (6 N HCl solution, 300 μL) was measured to determine the concentration of the particle bound to the cell. A Scatchard plot was prepared from the saturation binding curve of the particle for N87, and an apparent equilibrium dissociation constant (Kd) of the particle for the cell was determined.
(§2) According to Example 8, a Scatchard plot was prepared from the saturation binding curve of each particle for N87 cells, and an apparent equilibrium dissociation constant (Kd) of the particle for the cell was determined.

[2] = molecular target: T1, HER2 (epidermal growth factor receptor …); experiment: saturation binding to N87 cells (cell-bound iron measured), Scatchard plot, apparent Kd
Method: as §1

[3] = molecular target: T2, Recombinant Human ErbB2/Fc Chimera (R&D Systems, Inc.) (human, UniProt P04626 23-652); experiment: SPR (Biacore X), ErbB2/Fc on CM-5 chip, Scatchard plot of Req, apparent Kd of the particle
T2 construct: Bought; Amine-coupled to a CM-5 chip, about 1000 to 2000 RU; also called HER2; antigen; Fc part of the bought chimera not given

[4] = molecular target: T1, HER2 (epidermal growth factor receptor …); experiment: saturation binding to N87 cells, Scatchard plot, apparent Kd; HBP1 particle
Method: as §1, with “Subsequently, concentrated hydrochloric acid (12 N) was added at a concentration of 150 μL/well, and the cells were incubated at room temperature for 2 hours or longer.” left out
as §2

[5] = molecular target: T1, HER2 (epidermal growth factor receptor …); experiment: saturation binding to N87 cells, Scatchard plot, apparent Kd; HBP2 particle
Method: as §1, with “Subsequently, concentrated hydrochloric acid (12 N) was added at a concentration of 150 μL/well, and the cells were incubated at room temperature for 2 hours or longer.” left out
as §2

[6] = molecular target: T1, HER2 (epidermal growth factor receptor …); experiment: saturation binding to N87 cells, Scatchard plot, apparent Kd; HBP3 particle
Method: as §1, with “Subsequently, concentrated hydrochloric acid (12 N) was added at a concentration of 150 μL/well, and the cells were incubated at room temperature for 2 hours or longer.” left out
as §2

- Kd [1]: 0.11 nM
B1: HBP4-EO2k-NP-200: HER2-binding peptide-immobilized 200-nm particle with ethylene oxide linker of molecular weight 2000 (peptide)
peptide: MARSGLGGKGSC([maleimide-EO 2 kDa-iron oxide nanoparticle 200 nm])
modifications: not fully specified

- Kd [2]: 78 nM
- Kd [3]: 36.7 nM
B3: HBP-EO-NP-20: HER2-binding peptide-immobilized 20-nm particle containing an iron oxide particle (peptide)
peptide: MARSGLGGKGSC([maleimide-PEG 300-iron oxide nanoparticle 20 nm])
modifications: not fully specified

The remaining lines, values behind:

B2: HBP3-EO2k-NP-200: HER2-binding peptide-immobilized 200-nm particle with ethylene oxide linker of molecular weight 2000 (peptide)
peptide: MARSGLGGKGSC([maleimide-EO 2 kDa-iron oxide nanoparticle 200 nm])
modifications: not fully specified
- Kd [1]: 0.08 nM

B4: HBP1-EO-NP-200: HER2-binding peptide-immobilized 200-nm particle containing an iron oxide particle (peptide)
peptide: MARSGLGGKGSC([maleimide-PEG 300-iron oxide nanoparticle 200 nm])
modifications: not fully specified
- Kd [4]: 0.67 nM

B5: HBP1-EO2k-NP-200: HER2-binding peptide-immobilized 200-nm particle with ethylene oxide linker of molecular weight 2000 (peptide)
peptide: MARSGLGGKGSC([maleimide-EO 2 kDa-iron oxide nanoparticle 200 nm])
modifications: not fully specified
- Kd [1]: 0.07 nM

B6: HBP2-EO-NP-200: HER2-binding peptide-immobilized 200-nm particle containing an iron oxide particle (peptide)
peptide: MARSGLGGKGSC([maleimide-PEG 300-iron oxide nanoparticle 200 nm])
modifications: not fully specified
- Kd [5]: 0.43 nM

B7: HBP3-EO-NP-200: HER2-binding peptide-immobilized 200-nm particle containing an iron oxide particle (peptide)
peptide: MARSGLGGKGSC([maleimide-PEG 300-iron oxide nanoparticle 200 nm])
modifications: not fully specified
- Kd [6]: 0.49 nM

B8: HBP2-EO2k-NP-200: HER2-binding peptide-immobilized 200-nm particle with ethylene oxide linker of molecular weight 2000 (peptide)
peptide: MARSGLGGKGSC([maleimide-EO 2 kDa-iron oxide nanoparticle 200 nm])
modifications: not fully specified
- Kd [1]: 0.09 nM

From patent US20120027679A1 (CANON, published 2012)
